Primed or numbered codes have the meaning given here. Where no end group is shown, it is not given here. [ ]: non-standard residue; d: D form. APC″ = 3-aminopyrrolidine-4-carboxylic acid (cyclic β-amino acid); ACPC″ = 2-aminocyclopentanecarboxylic acid (x in the sequences); APC = 3-aminopyrrolidine-4-carboxylic acid; ACPC = 2-aminocyclopentanecarboxylic acid; β3hY = N[C@H](CC(=O)O)Cc1ccc(O)cc1; β3hR = N=C(N)NCCC[C@H](N)CC(=O)O; β3hQ = NC(=O)CC[C@H](N)CC(=O)O; β3hN = NC(=O)C[C@H](N)CC(=O)O; β3hL = CC(C)C[C@H](N)CC(=O)O; β3hK = NCCCC[C@H](N)CC(=O)O; β3hV = CC(C)[C@H](N)CC(=O)O; Aib = CC(C)(N)C(=O)O; βAla = NCCC(=O)O
T1: VPAC1 receptor (UniProt P32241 31-457, limits assumed)
T1 sequence (looked up): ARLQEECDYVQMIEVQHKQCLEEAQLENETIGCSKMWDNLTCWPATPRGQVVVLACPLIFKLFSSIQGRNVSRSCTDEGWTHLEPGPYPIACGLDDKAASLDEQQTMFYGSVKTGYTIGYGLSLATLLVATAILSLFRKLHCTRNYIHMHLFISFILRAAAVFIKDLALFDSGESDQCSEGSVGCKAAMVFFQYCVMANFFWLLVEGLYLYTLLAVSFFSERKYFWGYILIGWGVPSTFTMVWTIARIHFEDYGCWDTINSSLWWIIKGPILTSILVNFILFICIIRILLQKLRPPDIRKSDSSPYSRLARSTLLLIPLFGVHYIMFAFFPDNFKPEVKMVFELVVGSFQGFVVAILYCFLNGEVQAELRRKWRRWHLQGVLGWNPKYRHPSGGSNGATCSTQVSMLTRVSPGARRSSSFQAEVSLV

T2: VPAC2 receptor (UniProt P41587 24-438, limits assumed)
T2 sequence (looked up): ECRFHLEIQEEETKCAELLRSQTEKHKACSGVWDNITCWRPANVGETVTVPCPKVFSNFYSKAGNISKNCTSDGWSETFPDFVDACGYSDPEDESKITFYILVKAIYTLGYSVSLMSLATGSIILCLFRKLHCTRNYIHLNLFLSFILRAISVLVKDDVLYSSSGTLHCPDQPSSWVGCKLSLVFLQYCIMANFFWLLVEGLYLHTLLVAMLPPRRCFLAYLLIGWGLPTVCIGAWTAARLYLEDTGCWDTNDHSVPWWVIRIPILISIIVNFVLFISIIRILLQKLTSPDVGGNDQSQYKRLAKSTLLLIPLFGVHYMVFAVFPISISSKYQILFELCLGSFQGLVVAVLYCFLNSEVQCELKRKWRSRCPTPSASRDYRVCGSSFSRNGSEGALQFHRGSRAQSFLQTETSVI


The binders below were run against T1, VPAC1 receptor (assay: cell-based or functional assay).

Binder	EC 50 vpac1 (Molar), cell-based cAMP assay [nM]
Ac-H[ACPC]DA[ACPC]FTE[ACPC]YTKLRKQLAA[APC]KY[ACPC]NDL[β3hK]KG[βAla]T (not fully specified (C-terminus); printed as Ac-HxDAxFTExYTKLRKQLAAzKYxNDLkKGgT) [LBT-V209]	> 1000
Ac-H[ACPC″]DA[ACPC″]FTE[ACPC″][β3hY]TKLRKQ[β3hL]AA[APC″]KY[ACPC″]NDL[β3hK]KG[βAla]T (not fully specified (C-terminus); printed as Ac-HxDAxFTExyTKLRKQlAAzKYxNDLkKGgT) [LBT-V217]	785
Ac-H[ACPC]DA[β3hV]FTENYTKLR[β3hK]QLAA[APC]KY[ACPC]NDL[β3hK]KG[βAla]T (not fully specified (C-terminus); printed as Ac-HxDAvFTENYTKLRkQLAAzKYxNDLkKGgT) [LBT-V213]	293
Ac-H[ACPC″]DA[ACPC″]FTE[ACPC″][β3hY]TKLR[β3hK]QLAA[APC″]KY[ACPC″]NDL[β3hK]KG[βAla]T (not fully specified (C-terminus); printed as Ac-HxDAxFTExyTKLRkQLAAzKYxNDLkKGgT) [LBT-V219]	461
Ac-H[ACPC]DA[β3hV]FTENYTKLRKQLAA[APC]KY[ACPC]NDL[β3hK]KG[βAla]T (not fully specified (C-terminus); printed as Ac-HxDAvFTENYTKLRKQLAAzKYxNDLkKGgT) [LBT-V210]	1420
Ac-H[ACPC″]DA[β3hV]FTENYTKL[β3hR]KQLAA[APC″]KY[ACPC″]NDL[β3hK]KG[βAla]T (not fully specified (C-terminus); printed as Ac-HxDAvFTENYTKLrKQLAAzKYxNDLkKGgT) [LBT-V214]	> 1000
Ac-HSDAVFTENYTKLRKQLAA[APC]KY[ACPC]NDL[β3hK]KG[βAla]T (not fully specified (C-terminus); printed as Ac-HSDAVFTENYTKLRKQLAAzKYxNDLkKGgT) [LBT-V202]	> 1000
Ac-H[ACPC]DAVFTENYTKLRKQLAA[APC]KY[ACPC]NDL[β3hK]KG[βAla]T (not fully specified (C-terminus); printed as Ac-HxDAVFTENYTKLRKQLAAzKYxNDLkKGgT) [LBT-V207]	> 1000
Ac-H[ACPC″]DA[ACPC″]FTE[β3hN][β3hY]TKLRKQLAA[APC″]KY[ACPC″]NDL[β3hK]KG[βAla]T (not fully specified (C-terminus); printed as Ac-HxDAxFTEnyTKLRKQLAAzKYxNDLkKGgT) [LBT-V216]	932
Ac-H[ACPC″]DA[β3hV]FTENYTK[β3hL]RKQLAA[APC″]KY[ACPC″]NDL[β3hK]KG[βAla]T (not fully specified (C-terminus); printed as Ac-HxDAvFTENYTKlRKQLAAzKYxNDLkKGgT) [LBT-V215]	1420
Ac-H[Aib]DA[β3hV]FTE[β3hN]YTKLRKQLAA[APC]KY[ACPC]NDL[β3hK]KG[βAla]T (not fully specified (C-terminus); printed as Ac-HBDAvFTEnYTKLRKQLAAzKYxNDLkKGgT) [LBT-V206]	> 1000
Ac-H[ACPC]DA[β3hV]FTENYTKLRK[β3hQ]LAA[APC]KY[ACPC]NDL[β3hK]KG[βAla]T (not fully specified (C-terminus); printed as Ac-HxDAvFTENYTKLRKqLAAzKYxNDLkKGgT) [LBT-V212]	1530
Ac-H[ACPC″]DA[ACPC″]FTE[ACPC″][β3hY]TKLRK[β3hQ]LAA[APC″]KY[ACPC″]NDL[β3hK]KG[βAla]T (not fully specified (C-terminus); printed as Ac-HxDAxFTExyTKLRKqLAAzKYxNDLkKGgT) [LBT-V218]	> 1000
Ac-H[ACPC]DA[ACPC]FTENYTKLRKQLAA[APC]KY[ACPC]NDL[β3hK]KG[βAla]T (not fully specified (C-terminus); printed as Ac-HxDAxFTENYTKLRKQLAAzKYxNDLkKGgT) [LBT-V208]	133
Ac-H[Aib]DA[β3hV]FTENYTKLRKQLAA[APC]KY[ACPC]NDL[β3hK]KG[βAla]T (not fully specified (C-terminus); printed as Ac-HBDAvFTENYTKLRKQLAAzKYxNDLkKGgT) [LBT-V205]	> 1000
Ac-HSDAVFTENYTKLRKQLA[ACPC]KKY[ACPC]ND[β3hL]KKG[βAla]T (not fully specified (C-terminus); printed as Ac-HSDAVFTENYTKLRKQLAxKKYxNDlKKGgT) [LBT-V201]	9.09
Ac-H[ACPC]DA[β3hV]FTENYTKLRKQ[β3hL]AA[APC]KY[ACPC]NDL[β3hK]KG[βAla]T (not fully specified (C-terminus); printed as Ac-HxDAvFTENYTKLRKQlAAzKYxNDLkKGgT) [LBT-V211]	> 1000

The binders below were run against T2, VPAC2 receptor (assay: cell-based or functional assay).

Binder	EC50 vpac2 (Molar), cell-based cAMP assay [nM]
Ac-H[ACPC]DA[ACPC]FTE[ACPC]YTKLRKQLAA[APC]KY[ACPC]NDL[β3hK]KG[βAla]T (not fully specified (C-terminus); printed as Ac-HxDAxFTExYTKLRKQLAAzKYxNDLkKGgT) [LBT-V209]	5.58
Ac-H[ACPC″]DA[ACPC″]FTE[ACPC″][β3hY]TKLRKQ[β3hL]AA[APC″]KY[ACPC″]NDL[β3hK]KG[βAla]T (not fully specified (C-terminus); printed as Ac-HxDAxFTExyTKLRKQlAAzKYxNDLkKGgT) [LBT-V217]	1.17
Ac-H[ACPC]DA[β3hV]FTENYTKLR[β3hK]QLAA[APC]KY[ACPC]NDL[β3hK]KG[βAla]T (not fully specified (C-terminus); printed as Ac-HxDAvFTENYTKLRkQLAAzKYxNDLkKGgT) [LBT-V213]	1.27
Ac-H[ACPC″]DA[ACPC″]FTE[ACPC″][β3hY]TKLR[β3hK]QLAA[APC″]KY[ACPC″]NDL[β3hK]KG[βAla]T (not fully specified (C-terminus); printed as Ac-HxDAxFTExyTKLRkQLAAzKYxNDLkKGgT) [LBT-V219]	> 1000
Ac-H[ACPC]DA[β3hV]FTENYTKLRKQLAA[APC]KY[ACPC]NDL[β3hK]KG[βAla]T (not fully specified (C-terminus); printed as Ac-HxDAvFTENYTKLRKQLAAzKYxNDLkKGgT) [LBT-V210]	0.859
Ac-H[ACPC″]DA[β3hV]FTENYTKL[β3hR]KQLAA[APC″]KY[ACPC″]NDL[β3hK]KG[βAla]T (not fully specified (C-terminus); printed as Ac-HxDAvFTENYTKLrKQLAAzKYxNDLkKGgT) [LBT-V214]	1.37
Ac-HSDAVFTENYTKLRKQLAA[APC]KY[ACPC]NDL[β3hK]KG[βAla]T (not fully specified (C-terminus); printed as Ac-HSDAVFTENYTKLRKQLAAzKYxNDLkKGgT) [LBT-V202]	0.963
Ac-H[ACPC]DAVFTENYTKLRKQLAA[APC]KY[ACPC]NDL[β3hK]KG[βAla]T (not fully specified (C-terminus); printed as Ac-HxDAVFTENYTKLRKQLAAzKYxNDLkKGgT) [LBT-V207]	0.593
Ac-H[ACPC″]DA[ACPC″]FTE[β3hN][β3hY]TKLRKQLAA[APC″]KY[ACPC″]NDL[β3hK]KG[βAla]T (not fully specified (C-terminus); printed as Ac-HxDAxFTEnyTKLRKQLAAzKYxNDLkKGgT) [LBT-V216]	95.6
Ac-H[ACPC″]DA[β3hV]FTENYTK[β3hL]RKQLAA[APC″]KY[ACPC″]NDL[β3hK]KG[βAla]T (not fully specified (C-terminus); printed as Ac-HxDAvFTENYTKlRKQLAAzKYxNDLkKGgT) [LBT-V215]	1.33
Ac-H[Aib]DA[β3hV]FTE[β3hN]YTKLRKQLAA[APC]KY[ACPC]NDL[β3hK]KG[βAla]T (not fully specified (C-terminus); printed as Ac-HBDAvFTEnYTKLRKQLAAzKYxNDLkKGgT) [LBT-V206]	3.47
Ac-H[ACPC]DA[β3hV]FTENYTKLRK[β3hQ]LAA[APC]KY[ACPC]NDL[β3hK]KG[βAla]T (not fully specified (C-terminus); printed as Ac-HxDAvFTENYTKLRKqLAAzKYxNDLkKGgT) [LBT-V212]	3.52
Ac-H[ACPC″]DA[ACPC″]FTE[ACPC″][β3hY]TKLRK[β3hQ]LAA[APC″]KY[ACPC″]NDL[β3hK]KG[βAla]T (not fully specified (C-terminus); printed as Ac-HxDAxFTExyTKLRKqLAAzKYxNDLkKGgT) [LBT-V218]	1.02
Ac-H[ACPC]DA[ACPC]FTENYTKLRKQLAA[APC]KY[ACPC]NDL[β3hK]KG[βAla]T (not fully specified (C-terminus); printed as Ac-HxDAxFTENYTKLRKQLAAzKYxNDLkKGgT) [LBT-V208]	0.646
Ac-H[Aib]DA[β3hV]FTENYTKLRKQLAA[APC]KY[ACPC]NDL[β3hK]KG[βAla]T (not fully specified (C-terminus); printed as Ac-HBDAvFTENYTKLRKQLAAzKYxNDLkKGgT) [LBT-V205]	0.816
Ac-HSDAVFTENYTKLRKQLA[ACPC]KKY[ACPC]ND[β3hL]KKG[βAla]T (not fully specified (C-terminus); printed as Ac-HSDAVFTENYTKLRKQLAxKKYxNDlKKGgT) [LBT-V201]	104
Ac-H[ACPC]DA[β3hV]FTENYTKLRKQ[β3hL]AA[APC]KY[ACPC]NDL[β3hK]KG[βAla]T (not fully specified (C-terminus); printed as Ac-HxDAvFTENYTKLRKQlAAzKYxNDLkKGgT) [LBT-V211]	1.26

— US20180193423A1 (LONGEVITY BIOTECH, published 2018)
